Consider 5 molecules from publication PMC8073977, “Structural Basis for the C-Terminal Domain of Mycobacterium tuberculosis Ribosome Maturation Factor RimM to Bind Ribosomal Protein S19” (Biomolecules, 2021).

Positions count from the first letter of the chain named. Names may count otherwise.

The assay addresses T1, Ribosomal protein S19 from Mycobacterium tuberculosis (MtbS19, residues 1-93) (Mycobacterium tuberculosis strain H37Rv, UniProt P9WH45 1-93).
T1 construct: 30S ribosomal protein S19, M. tuberculosis H37Rv, residues 1-93; pET-28a with thrombin-cleavable N-terminal His6-tag; Surmise: a few vector residues remain at the N-terminus after thrombin cleavage; In PDB 5V93 residues 84-93 of S19 are absent; not shown: His6, N-terminal, cleaved
Briefly: SPR; Biacore T200, 298 K; […]; 20 mM potassium phosphate pH 7.2, 100 mM KCl; […]. Particulars: both partners purified.

As a reminder, the Kd is the free concentration of one partner at which half of the binding sites on the other are occupied at equilibrium, for simple one-to-one binding.

T1 sequence (P9WH45 whole entry, the tested form may be a part): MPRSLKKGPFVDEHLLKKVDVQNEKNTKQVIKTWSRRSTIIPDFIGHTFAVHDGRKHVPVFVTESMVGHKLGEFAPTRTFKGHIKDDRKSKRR

B1: C-terminal domain of RimM from Mycobacterium tuberculosis (MtbRimMCTD, residues 101-176), wild type (domain or fragment)
chain: DTYYDHQLVGLMVQTATGEGVGVVTEVVHTAAGELLAVKRDSDEVLVPFVRAIVTSVSLDDGIVEIDPPHGLLNLE
notes: A starting Met stands before D101 (Nde I site); Surmise: pET-22b with Xho I adds Leu-Glu before the His6 tag; Theoretical Mw of the recombinant protein printed as 9.28 kDa; 15N-labelled in the NMR titrations, unlabelled in SPR; also called WT MtbRimMCTD; not shown: His6, C-terminal, kept
For B1, the Kd was 2.16 µM.

B2: MtbRimMCTD H129A (domain or fragment)
chain: B1 chain with H29A
notes: Same limits and tag as m1; not shown: His6, C-terminal, kept
With B2, the Kd was 12.7 µM.

B3: MtbRimMCTD E144A (domain or fragment)
chain: B1 chain with E44A
notes: as for B2
B3: the binding result is recorded as “binds”.

B4: MtbRimMCTD D105A (domain or fragment)
chain: B1 chain with D5A
notes: Same limits and tag as m1; also called MtbRimM D105A; not shown: His6, C-terminal, kept
For B4, binding was characterised by a dissociation constant (Kd) of 7.06 µM.

B5: MtbRimMCTD E126A (domain or fragment)
chain: B1 chain with E26A
notes: as for B2
B5: the binding result is on record as “binds”.
